{"source": "the nanobody polyreactivity screen of Harvey et al. (2022)", "data": [{"assay": "yeast display, Sf9 membrane polyspecificity reagent, FACS + sequencing; frameworks hold sequencing errors", "how_it_was_run": "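Galactose-induced (36–48 hours) yeast carrying a synthetic nanobody display library were exposed to 10% biotinylated, detergent-solubilized Sf9 membrane reagent at 4 °C for 1 hour. FACS followed streptavidin microbead enrichment, using low and high (top ~1%) gates for expression (anti-HA) and reagent binding (streptavidin). Colony PCR, MiSeq 2 × 250 sequencing and CDR-length filtering followed. Labels for polyreactivity reflect the gate of origin.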", "values": [{"sequence": "QVQLVESGGGLVQAGGSLRLSCAASGIIFDRYAMGWYRQAPGKEREFVAAISRRGGSTYYADSVKGRFTISRDNAKNTVYLQMNSLKPEDTAVYYCAKEIRYSSSVSESDYWGQGTQVTVSS", "polyreactivity (PSR sort gate)": "high polyreactivity"}, {"sequence": "QVQLVESGGGLVQAGGSLRLSCAASGRTFYIYAMGWYRQAPGKERELVAAITSGTSSTYYADSVKGRFTISRDNAKNTVYLQMNSLKPEDTAVYYCAASSTGYGGSTYYYWGQGTQVTVSS", "polyreactivity (PSR sort gate)": "low polyreactivity"}, {"sequence": "QVQLVESGGGLVQAGGSLSLSCAASGYIVKAYVMGWYRPAPGKVRELVAAITWSGGSTYYADTVKGRFTISRDNAKNTVYLQMNSLKPEDTAVYYCAAYARRYRTPYDFWGQGTQVTLSS", "polyreactivity (PSR sort gate)": "high polyreactivity"}, {"sequence": "QVQLVESGGGLVQAGGSLRLSCAASGRTFFKNALGWYRQAPGKERELVASISSRSGTTYYADSVKGRFTISRDNAKNTVYLQMNSLKPEDTAVYYCAASRNRYSYGYWGQGTQVTVSS", "polyreactivity (PSR sort gate)": "high polyreactivity"}, {"sequence": "QVQLVESGGGLVQARGSLRLSCAASGRTFDLYAMGWYRQSPGKERELVAAITKGGGSTYYADSVKGRFTISRDNAKNTVYLQMNSLKPEDTAVYYCAARKYKRIYRISSGIGYYWGQGTQVTVSS", "polyreactivity (PSR sort gate)": "high polyreactivity"}, {"sequence": "QVQLVESGGGLVQAGGSLRLSCATSGFTFGWNYMGWYRQAPGKERELVAAITWSGGSTYYADSVKGRFTISRDNAKNTVYLQMNSLKPEDTAVYYCAAVVSDYVWRYEYWGQGSQVTVSS", "polyreactivity (PSR sort gate)": "low polyreactivity"}, {"sequence": "QVQLVESGGGLVQAGGSLRLSCAASGTIFLYYAMGWYRQAPGKERELVAGINRVGSTNYADSVKGRFTISRDNAKNTVYLQMNSLKPEDTAVFYCNKAATRSRSRGYWGQGTQVNVSS", "polyreactivity (PSR sort gate)": "low polyreactivity"}, {"sequence": "QVQLQESGCRLVQAGGRLRMSCAASGNIIDADIMGWYRQAPGKERELVASITDGRRTNYADSVKGRYTNSRDSEKNTVYMQMNSLKPEDTAVYYCAAIAYPVVPTYFDYDSDYFHWGQGTQVTVSS", "polyreactivity (PSR sort gate)": "high polyreactivity"}, {"sequence": "QVQLEESGGGLVQAGGSLRLSSAASGSTFCWYAMGGYRKEPGKERELVAAISIGGSTKYADSVKGRLTISRDNAKNSVYLQMNRMKPEYSAVYYCAAEVSYHYVPYGYWGQGTQVTVSS", "polyreactivity (PSR sort gate)": "low polyreactivity"}, {"sequence": "QVQLVESGGGLVQAGGRLSLSCAASGSTFAYYAMGWYRQAPGKERELVAGITWTGGSTYYADSVKGRFTNSRDNAKNTVYLQMNSLKPEDTAVYYCAVTYPYGYEYDHWGQGTQVTVSS", "polyreactivity (PSR sort gate)": "low polyreactivity"}, {"sequence": "QVQLVESGGGLVQAGGSLRLSCAASGSTFGRNAMGWYRQAPGKERELVAAITASGGTTYYADSVKGRFTISRDNAMNTVYLQMNSLKPEDTAVYYCARAGHFSFKYDYWGQGTQVTVSS", "polyreactivity (PSR sort gate)": "low polyreactivity"}, {"sequence": "QVQLVESGGGLVQAGGSLRLSCAASGRTFYVYAMGWYRQAPGKVSELVAAISASGGRTYYADSVKGGFTISRDNAKNTVYLQMNSLKPEDTAVYYCAAEGRRGGKDYDYWGQGTQVTVSS", "polyreactivity (PSR sort gate)": "high polyreactivity"}, {"sequence": "QVQLVESGGGLVQAGGRLRLSCAASGRTFPIYAMGWYRQAPGKERELVAAITRGGRTNYADSVKGRFTISRDNAKNTVYLQMNSLKPEDTAVYYCAARTYGTYLYAEYDYWGQGTQVTVSS", "polyreactivity (PSR sort gate)": "high polyreactivity"}, {"sequence": "QVQLVESGGGLVQAGRILRISCAASGFKYAMGWYRQEPGKERELVAAISSGGITSYADSVKGRFTISRDNAKNTVYLQMNSLKPEDTAVYYCAAALRRRRAYFDYWGQGTQVTVSS", "polyreactivity (PSR sort gate)": "high polyreactivity"}, {"sequence": "QVQLVESGGGLVQAGGSLRLSCAASGFIFYYNAMGWSRQAPGKERELVASISRDCGRTYYADSVKGRFTISRDNAKNTVYLQMNSLKPEDTAVYYCAKKRINSRKYDYWGQGPQVTVSS", "polyreactivity (PSR sort gate)": "low polyreactivity"}, {"sequence": "QVQLVESGGGLVQAGGSLRLSCAASGIIFTYYDMGWYRQAPGKERELVAGIDYSGTSTYYADSVKGRFTISRDNAKNTVYLQMNSLKPEDTAVYYCAAVPVWGGYFAGEYYYWGQGTQVTVSS", "polyreactivity (PSR sort gate)": "high polyreactivity"}, {"sequence": "QVQLVESGGGLVQAGGSHRLSCAASGRTFEYNAMGWYRQAPGKERELVATITRASTNYADSVKGRFTISRDNAKNTVYLQMNSLKPEDTAVYYCNARARGRRYPYSKYYYWGQGTQVTVSS", "polyreactivity (PSR sort gate)": "high polyreactivity"}, {"sequence": "QVQLVESGGGIVQAGGSLRLSCAASGRIFQFYAMGWYRQAPGKERELVAGITTSGGSTYYADSVKGRFTISRDNAKNTVYLQMNSLKPEDTAVYYCAASRHFARHRGYYFRYDYWGQGTQVTVSS", "polyreactivity (PSR sort gate)": "high polyreactivity"}, {"sequence": "QVQLVESGGGLVQAGGSLRLSCAASGFTFRKNAMGWYRQAPGKERELVAAINSSGGSTYYADSVKGRFTISRDNAKNTVYLQMKSLKQEDTAVYSCNAVGRSLARPRGDYWGQGTQVTVSS", "polyreactivity (PSR sort gate)": "high polyreactivity"}, {"sequence": "QVQLVESGGGLVQAGGSLRLSCAASATFYYYAMGWSRQAPGKERELVAAISYSGGRTYYADSVKGRFTISRDNAKNTVYLQMNSLKPEDTAVYYCNALYRKTPSYGADDYWGQGTQVTVSS", "polyreactivity (PSR sort gate)": "high polyreactivity"}, {"sequence": "QVQLVESGVGLVQAGGSLRLSCAASGRIFYPYAMGWYRQAPGKERELDAVINGSGGSTYYADSVKGRFTISRDYAKNTVYLQMNSLKPEDTAVYYCARVWSRRYGGWYRNYYWGQGTQVTVSS", "polyreactivity (PSR sort gate)": "high polyreactivity"}, {"sequence": "QVQLVESGGGLVQAGGSLRLSCAASGLTFSDYAMGWYRQAPGKERELVAGISSGGSTYYADSVKGRFTISRDNAENTVYLQMNSLKPEDTAVYYCAATRYNRWPIKFDYWGQGTQVTVSS", "polyreactivity (PSR sort gate)": "high polyreactivity"}, {"sequence": "QVQLVESGGGLVQAGGSLRLSCAASGSTFERYAMGWYRQAPGKEREFVATINWGGGSTYYADSVKGRFTISRDNAKNTVYLQMNSLKPEDTAVYYCNAYVLYQSWRFSYDCWGQGTQVTVSS", "polyreactivity (PSR sort gate)": "low polyreactivity"}, {"sequence": "QDQLVESGGGLVQAGGSLRLSCAASGFIFSWYAMGWYRQPPGKERELVAGISIRGGRTYADSVKGRFTISRDNAKNTVYLQMNSLKPDDTAVYYCATRSYRPYHSLYDYWGQGTQVTVSS", "polyreactivity (PSR sort gate)": "high polyreactivity"}, {"sequence": "QVQLVESGGGLVQAGGSLRLSCAASGFTFVRYAMGWYRQAPGKERELVAAISSGGRTYYADSVKGRFTISRDNAKNTVYLQMNSLKPEDTAVYYCAADTKFGYGYWGQGTQVTVSS", "polyreactivity (PSR sort gate)": "high polyreactivity"}, {"sequence": "QVQLVESGGGLVQAGGSLRLSCAASGGIFYAYDMGWYRQAPGKERELVAAITWTGGTTYYADSVKGRFTISRDNAKNTVYLQMNSLKPEDTAVYYCAADDGTNSTARDKDDYYYWGQGTQVTVSS", "polyreactivity (PSR sort gate)": "low polyreactivity"}, {"sequence": "QVQLVESGGGLVQAGGSLRLSCAASGSICVDNAMGWYRQAPGKERELVAVITLRSGSTNYADSVKGRFTISRDNAKNTVYLQMNSLKPEDTAVYYCAADDTYHDYQRDTDDDYWGQGTQVTVSS", "polyreactivity (PSR sort gate)": "low polyreactivity"}, {"sequence": "QVQLVESGGGLVQAGGSLRLSCAASGRILRSYAMGWYRPAPGKERELVAAISWRGGSTYYADSVKGRFTISRDNAKNTVYLQMNSLKPEDTAVYYCAKRSYYPARYDYWGQGTQVTVSS", "polyreactivity (PSR sort gate)": "high polyreactivity"}, {"sequence": "QVQLVESGGGLVQAGGSLRLSCADSGRTFYSYAMGWYRQAPGKERELVAAISASGGRTYYADSVKGRFTISRDNAKNTVYLQMNSLKPEDTAVYYCAAYVSGYRWGYDYWGQGTQVTVSS", "polyreactivity (PSR sort gate)": "high polyreactivity"}, {"sequence": "QVQLVESGGGLVQAGGSLRLSCAASGSTFGYNDMGWYRQAPGKERELVAAIDTGVSTNYADSVKGRFTISRDNAKNTVYLQMNSLKPEDTAVYYCAKSGSAYWHSGWSVGFDYWGQGTQVTVSS", "polyreactivity (PSR sort gate)": "low polyreactivity"}, {"sequence": "QVQLVESGGGLVQAGGSLRLSCAASGFIFAYNAMGWYRQAPGKERELVAAISWSGGSTYYADSVKGRFTISRDNAKNTVYLQMNSLKPEYTAVYYCNAKYLGRRWDGNYNYWGQGTQVTVSS", "polyreactivity (PSR sort gate)": "high polyreactivity"}]}]}
